Substitutions are numbered along the chain they refer to.
What was measured:
[1] = biological target: T1, human BCMA-Fc/His (1-51) (human, UniProt Q02223 1-51); assay: BLI (Octet), antigen on Ni-NTA biosensor, IgG in solution
T1 construct: also called recombinant human BCMA-Fc/His; recombinant human BCMA-His (Sino Biological Inc.); not shown: Fc region; C-terminal His tag
T1 sequence: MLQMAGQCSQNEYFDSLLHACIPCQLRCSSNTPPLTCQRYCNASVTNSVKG
Description: A 96-well black microplate was mounted on a Biosensor tray case, 200 μl of 1XKB was added to each of the 8 wells, and then 8 Ni-NTA biosensors (Fortebio) were inserted thereto for hydration for 10 minutes. For antigen fixation, 5 μg/ml of recombinant human BCMA-His (Sino Biological Inc.) was diluted using 1XKB. Experiments were performed with a threshold of 0.5 to 1.0 nm, and Octet Data Acquisition 9.0 software was activated to create an Octet program template. The first step was for Baseline 1, the second step was for loading, and the threshold was fixed to 0.5 to 1.0 nm. In the third step, which was for Baseline 2, association for 5 minutes and dissociation for 20 minutes were performed. A plate temperature was fixed to 30° C., and the prepared buffer solution was placed in order into a new 96-well black microplate according to the Octet program template. 200 μl of 1XKB used as Baseline 1 and recombinant human BCMA-Fc/His which is an antigen to be loaded were diluted to 5 μg/ml, and 200 μl of the dilution was added thereto. After adding 200 μl of 1XKB used as Baseline 2, 200 μl of the antibody to be reacted with the antigen was dispensed, and the instrument was operated. After completion of the experiment, an association constant (kon), a dissociation constant (kdis), and an equilibrium dissociation constant (KD) for each antibody were analyzed and calculated with Octet Analysis 9.0 software.

[2] = biological target: T2, recombinant human BCMA (ELISA antigen, construct not specified) (human, UniProt Q02223 1-54); assay: ELISA on coated recombinant human BCMA, antibody titrated, HRP anti-Fab detection, absorbance 450 nm
T2 construct: Fc 1-51; Fc/His 1-51; Fc 4-48) was coated in these ELISAs; also called recombinant BCMA; recombinant protein
T2 sequence: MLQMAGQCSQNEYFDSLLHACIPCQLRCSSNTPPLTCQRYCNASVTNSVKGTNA
Description: Specific binding abilities of the anti-BCMA IgG antibodies isolated in Example 1.4 to recombinant BCMA protein were analyzed by ELISA.
(§1) Using recombinant human BCMA or monkey BCMA as an antigen, and HRP-conjugated Fab polychronal antibody reagent (Pierce, 31414) as a secondary antibody, ELISA was performed as described in Example 1.3.

[3] = biological target: T3, mouse BCMA (1-49) fused to the Fc region of human IgG1 (mouse; human, UniProt O88472 1-49); assay: ELISA on 100 ng coated mouse BCMA, antibody titrated, anti-human Fab HRP, absorbance 450 nm
T3 construct: Sino Biological Inc. 50076-M01H; also called 50076-M01H; not shown: Fc region of human IgG1
T3 chain: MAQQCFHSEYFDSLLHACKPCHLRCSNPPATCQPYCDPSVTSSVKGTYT
Description: (§2) 100 ng of human, monkey, mouse, and rat BCMA antigens prepared in Example 1.1 were coated on the bottom of the plate, and then coated with 3% BSA to block nonspecific binding. Using the selected anti-BCMA IgG antibodies as primary antibodies, and the anti-human Fab HRP (1:20000 dilution) as a secondary antibody, ELISA assay was performed as described in Example 1.3.
(§3) Absorbancies at 450 nm measured with a microplate reader are shown in FIG. 3, and half maximal effective concentrations (EC₅₀) (nM) are shown in Table 9.

[4] = biological target: T4, monkey (Rhesus) BCMA (1-53) fused to the Fc region of human IgG1 (monkey (Rhesus); human, UniProt Q02223 1-54); assay: BLI (Octet), monkey BCMA
T4 construct: Sino Biological Inc. 90103-C02H; also called monkey BCMA; Monkey BCMA (1-53); not shown: Fc region of human IgG1

[5] = biological target: T2, recombinant human BCMA (ELISA antigen, …); assay: ELISA on 100 ng coated human BCMA, antibody titrated, anti-human Fab HRP, absorbance 450 nm
Description: as §2, §3

[6] = biological target: T4, monkey (Rhesus) BCMA (1-53) fused to …; assay: ELISA on 100 ng coated rhesus BCMA, antibody titrated, anti-human Fab HRP, absorbance 450 nm
Description: as §2, §3

[7] = biological target: T5, human BCMA expressed on cell surface (H929, OPM-2, CHOK1-hBCMA cells) (human, UniProt Q02223 1-184); assay: FACS on H929 cells, 10 µg/ml antibody, anti-human Fc-FITC; open histogram shifted right of the filled control
T5 construct: also called cell-surface BCMA; BCMA on cell surface
T5 sequence: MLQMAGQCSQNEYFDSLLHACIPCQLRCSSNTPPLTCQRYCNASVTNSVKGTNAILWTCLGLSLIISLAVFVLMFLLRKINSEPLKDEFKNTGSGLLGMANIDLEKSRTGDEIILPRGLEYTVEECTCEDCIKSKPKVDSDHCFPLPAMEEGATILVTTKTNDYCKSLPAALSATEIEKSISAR
Description: (§4) Multiple myeloma cancer cells H929 (ATCC, CRL9068™) and OPM-2 cell line (DSMZ, ACC 50), which are known to express BCMA, were prepared, and human BCMA-overexpressed CHOK1-hBCMA cell line (constructed by ABIBio) were prepared.
(§5) 10 μg/ml of the seven IgG antibodies (B58, 5A6, 5D5, 5B5, 1H, 2G, and 5G) purified in Example 1.4 was added to the prepared cells, incubated at 4° C. for 1 hour, and then washed two times with a PBS buffer solution. The anti-human Fc-FITC was diluted in 1:400, incubated at 4° C. for 1 hour, and then washed with a PBS buffer solution. These processes were repeated. In FIGS. 2A and 2B, MFI indicates mean fluorescence intensity.

[8] = biological target: T4, monkey (Rhesus) BCMA (1-53) fused to …; assay: ELISA, 100 ng coated antigen
Description: as §2, §3

[9] = biological target: T3, mouse BCMA (1-49) fused to the Fc …; assay: ELISA, 100 ng coated antigen
Description: as §2, §3

[10] = biological target: T2, recombinant human BCMA (ELISA antigen, …); assay: ELISA, 100 ng coated antigen
Description: as §2, §3

[11] = biological target: T6, rat BCMA (1-49) fused to the Fc region of human IgG1 (rat; human); assay: ELISA, 100 ng coated antigen
T6 construct: Sino Biological Inc. 80156-R01H; also called 80156-R01H; not shown: Fc region of human IgG1
T6 chain: T3 chain with Q4R, H22R, T31P, V40M, K45R
Description: as §2, §3

[12] = biological target: T6, rat BCMA (1-49) fused to the Fc region …; assay: ELISA on 100 ng coated rat BCMA, antibody titrated, anti-human Fab HRP, absorbance 450 nm
Description: as §2, §3

[13] = biological target: T5, human BCMA expressed on cell surface …; assay: FACS on OPM-2 cells, 10 µg/ml antibody, anti-human Fc-FITC; open histogram shifted right of the filled control
Description: as §4, §5

[14] = biological target: T2, recombinant human BCMA (ELISA antigen, …); assay: ELISA on coated recombinant human BCMA, antibody titrated, HRP anti-Fab detection, absorbance 450 nm; remark: listed apart in the source
Description: as §1

[15] = biological target: T4, monkey (Rhesus) BCMA (1-53) fused to …; assay: ELISA on coated monkey (Rhesus) BCMA, antibody titrated, HRP anti-Fab detection, absorbance 450 nm
Description: as §1

B1: anti-BCMA IgG antibody 5C3 (antibody, V domains shown)
VH: EVQLLESGGGLVQPGGSLRLSCAASGFTFSDYYIHWVRQAPGKGLEWVSAISGSGGSTYYADSVKGRFTISRDNSKNTLYLQMNSLRAEDTAVYYCASDLGDTTFDSWGQGTLVTVSS
VL: EIVLTQSPGTLSLSPGERATLSCQASDDISNYLNWYQQKPGQAPRLLIYGVSNRASGIPDRFSGSGSGTDFTLTISRLEPEDFAVYYCQQSYSTPPITFGQGTKLEIKR
Question: Which results are given for B1?
Answer: Kd [1]: 16.4 nM; koff [1]: 0.00966 s⁻¹; kon [1]: 591000 M⁻¹ s⁻¹; EC50 (read off the curve) [2]: ~0.9 µg/mL

B2: anti-BCMA IgG antibody 5B5 (antibody, V domains shown)
VH: EVQLLESGGGLVQPGGSLRLSCAASGFTFSGHYWSWVRQAPGKGLEWVSTVSGSGGDTFYADSVKGRFTISRDNSKNTLYLQMNSLRAEDTAVYYCARGHSVMDVWGQGTLVTVSS
VL: EIVLTQSPGTLSLSPGERATLSCRASQGIDSYVAWYQQKPGQAPRLLIYDASLRATGIPDRFSGSGSGTDFTLTISRLEPEDFAVYYCQQYNSWPITFGQGTKLEIKR
notes: also called 5B5 antibody
Question: B2 was tested. Which “EC50 (read off the curve)” value [3] did it give?
Answer: ~0.01 µg/mL

Question: And the Kd [4]?
Answer: 0.461 nM

Question: And the koff [4]?
Answer: 0.00221 s⁻¹

Question: What about the kon [4] of the same binder?
Answer: 4.79e+06 M⁻¹ s⁻¹

Question: What about the “EC50 (read off the curve)” value [5] of the same binder?
Answer: ~0.01 µg/mL

Question: What about the “EC50 (read off the curve)” value [6] of the same binder?
Answer: ~0.01 µg/mL

Question: What about the MFI [7] of the same binder?
Answer: 37.4

Question: What about the EC50 [8] of the same binder?
Answer: 82 nM

Question: And the EC50 [9]?
Answer: 110 nM

Question: What about the EC50 [10] of the same binder?
Answer: 63 nM

Question: What about the EC50 [11] of the same binder?
Answer: 65 nM

Question: What about the Kd [1] of the same binder?
Answer: 0.202 nM

Question: And the koff [1]?
Answer: 0.00025 s⁻¹

Question: What about the kon [1] of the same binder?
Answer: 1.24e+06 M⁻¹ s⁻¹

Question: And the “EC50 (read off the curve)” value [12]?
Answer: ~0.02 µg/mL

Question: What about the MFI [13] of the same binder?
Answer: 20.9

Question: What about the “EC50 (read off the curve)” value [2] of the same binder?
Answer: ~0.1 µg/mL

B3: anti-BCMA IgG antibody 1H (antibody, V domains shown)
VH: EVQLVESGGGLVQPGGSLRLSCAASGFTFSNYAMSWVRQAPGKGLEWVSGISHSGSSTYYADSVKGRFTISRDNSKNTLYLQMNSLRAEDTAVYYCAKHVYIIEFESLDIWGQGTLVTVSS
VL: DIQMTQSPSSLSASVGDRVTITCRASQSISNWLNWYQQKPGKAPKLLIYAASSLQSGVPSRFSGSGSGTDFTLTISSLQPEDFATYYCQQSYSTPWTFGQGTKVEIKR
Question: What does the source list for B3?
Answer: EC50 (read off the curve) [14]: ~0.08 µg/mL; EC50 (read off the curve) [15]: ~0.2 µg/mL; Kd [1]: 1.45 nM; koff [1]: 0.000592 s⁻¹; kon [1]: 409000 M⁻¹ s⁻¹

B4: anti-BCMA IgG antibody 5G (antibody, V domains shown)
VH: B3 VH with H53Q, V100A, L108M
VL: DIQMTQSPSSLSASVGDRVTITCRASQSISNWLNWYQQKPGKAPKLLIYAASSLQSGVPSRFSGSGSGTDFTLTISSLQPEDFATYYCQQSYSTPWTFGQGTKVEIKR
Question: What does the source list for B4?
Answer: binding result [15]: binds; Kd [1]: 361 nM; koff [1]: 0.0143 s⁻¹; kon [1]: 39700 M⁻¹ s⁻¹

B5: anti-BCMA IgG antibody 2F8 (antibody, V domains shown)
VH: EVQLLESGGGLVQPGGSLRLSCAASGFTFSNYGMSWVRQAPGKGLEWVSEIIPIFDTSNYAQKFQGRFTISRDNSKNTLYLQMNSLRAEDTAVYYCAKIPGNRHDYWGQGTLVTVSS
VL: QSVLTQPPSASGTPGQRVTISCTRMQRQSDWYQQLPGTAPKLLIYDNNKRPLGVPDRFSGSKSGTSASLAISGLRSEDEADYYCQSYDSNAYVVFGGGTKLTVLG
Question: How did the Kd [1] turn out when B5 was run?
Answer: 104 nM

Question: What about the koff [1] of the same binder?
Answer: 0.0152 s⁻¹

Question: What about the kon [1] of the same binder?
Answer: 147000 M⁻¹ s⁻¹

Question: What about the “EC50 (read off the curve)” value [2] of the same binder?
Answer: ~0.07 µg/mL

B6: anti-BCMA IgG antibody 4H9 (antibody, V domains shown)
VH: EVQLLESGGGLVQPGGSLRLSCAASGFTFSGYSMSWVRQAPGKGLEWVSSIYHTGYTYYNPSLKSRFTISRDNSKNTLYLQMNSLRAEDTAVYYCARYKSGAFDIWGQGTLVTVSS
VL: EIVLTQSPGTLSLSPGERATLSCRASQSVSRNLAWYQQKPGQAPRLLIYGVSSRATGIPDRFSGSGSGTDFTLTISRLEPEDFAVYYCQQYGSSPPTFGQGTKVEIKR
Question: For B6, which Kd [1] is on record?
Answer: 1.29 nM

Question: What about the koff [1] of the same binder?
Answer: 0.00179 s⁻¹

Question: And the kon [1]?
Answer: 1.38e+06 M⁻¹ s⁻¹

Question: And the “EC50 (read off the curve)” value [2]?
Answer: ~0.01 µg/mL

B7: anti-BCMA IgG antibody 2G (antibody, V domains shown)
VH: EVQLVESGGGLVQPGGSLRLSCAASGFTFSNYAMSWVRQAPGKGLEWVSAISSSGSTIYYADSVKGRFTISRDNSKNTLYLQMNSLRAEDTAVYYCAKAGYYGSIYAFDYWGQGTLVTVSS
VL: DIQMTQSPSSLSASVGDRVTITCRASQSISSYLNWYQQKPGKAPKLLIYATSRLQSGVPSRFSGSGSGTDFTLTISSLQPEDFATYYCQQSSSFPWTFGQGTKVEIKR
Question: Which “EC50 (read off the curve)” value [14] does the source give for B7 here?
Answer: ~0.04 µg/mL

Question: Does B7 bind [15]?
Answer: binds

Question: And the Kd [1]?
Answer: 1.08 nM

Question: And the koff [1]?
Answer: 0.00078 s⁻¹

Question: And the kon [1]?
Answer: 720000 M⁻¹ s⁻¹
